Ends that are not written are not given here.
Assays:
Experiment in all cases: competition ELISA, peptide titrated vs TCE binding to captured CD3
[1] = target: T1, TCE-29
T1 construct: anti-CD3 scFv wt; anti-TROP2 Fab F108A

[2] = target: T2, TCE-30
T2 construct: anti-CD3 scFv H101A; anti-TROP2 Fab F108A

[3] = target: T3, TCE-32
T3 construct: anti-CD3 scFv F240A; anti-TROP2 Fab F108A

[4] = target: T4, TCE-33
T4 construct: anti-CD3 scFv with P41S; E227D set of mutations; anti-TROP2 Fab F108A

[5] = target: T5, TCE-15
T5 construct: anti-CD3 scFv W112A; anti-TROP2 Fab wt; also called 3087

[6] = target: T6, TCE-19
T6 construct: anti-CD3 scFv W233A; anti-TROP2 Fab wt; also called 3091

[7] = target: T7, TCE-24
T7 construct: anti-CD3 scFv W238A; anti-TROP2 Fab wt; also called 3096

| IC50 [1] [µM] | IC50 [2] [µM] | IC50 [3] [µM] | IC50 [4] [µM] | IC50 [5] [µM] | IC50 [6] [µM] | IC50 [7] [µM] | Binder |
| --- | --- | --- | --- | --- | --- | --- | --- |
| > 100 | > 100 | > 100 | > 100 | – | – | – | YLCGPDTDETLACY (cysteine pairing not given here; also: biotinylated, site not given here) [Peptide-13] |
| – | – | – | – | > 100 | > 100 | > 100 | GSACLGPEWEVCPY (cysteine pairing not given here; also: biotinylated when captured in ELISA, also called 1596) [Peptide-11] |

Reference: patent US20260049140A1 (JANUX THERAPEUTICS, published 2026)
